Target: the molecule itself
Test: cryo-EM structure; purified receptor in 20 mM HEPES pH 7.0, 100 mM NaCl, 0.5 mM C12M (DDM); apo, or incubated with 900 uM ATP or with antagonist at 3-4x the molar concentration of the monomer; homotrimer

B1: full-length wild-type human P2X7 receptor (receptor, UniProt Q99572 1-595, looked up)
chain: MPACCSCSDVFQYETNKVTRIQSMNYGTIKWFFHVIIFSYVCFALVSDKLYQRKEPVISSVHTKVKGIAEVKEEIVENGVKKLVHSVFDTADYTFPLQGNSFFVMTNFLKTEGQEQRLCPEYPTRRTLCSSDRGCKKGWMDPQSKGIQTGRCVVYEGNQKTCEVSAWCPIEAVEEAPRPALLNSAENFTVLIKNNIDFPGHNYTTRNILPGLNITCTFHKTQNPQCPIFRLGDIFRETGDNFSDVAIQGGIMGIEIYWDCNLDRWFHHCRPKYSFRRLDDKTTNVSLYPGYNFRYAKYYKENNVEKRTLIKVFGIRFDILVFGTGGKFDIIQLVVYIGSTLSYFGLAAVFIDFLIDTYSSNCCRSHIYPWCKCCQPCVVNEYYYRKKCESIVEPKPTLKYVSFVDESHIRMVNQQLLGRSLQDVKGQEVPRPAMDFTDLSRLPLALHDTPPIPGQPEEIQLLRKEATPRSRDSPVWCQCGSCLPSQLPESHRCLEELCCRKKPGACITTSELFRKLVLSRHVLQFLLLYQEPLLALDVDSTNSRLRHCAYRCYATWRFGSQDMADFAILPSCCRWRIRKEFPKSEGQYSGFKSPY
modifications: palmitoylation of residues on the C-cys anchor; limited glycosylation, acylation and palmitoylation modelled where density allowed
notes: P2X7 receptor (P2X purinoceptor 7), human, full-length wild type, no mutations or truncations; UniProt Q99572; The construct carries a C-terminal GFP, a 3C protease site and a histidine tag; the protein was digested with HRV 3C protease before SEC; also called hP2X7R; hP2X7; not shown: GFP, C-terminal, cleaved
stoichiometry N: 3

B2: full-length wild-type mouse P2X7 receptor (receptor, UniProt Q9Z1M0 1-595, looked up)
chain: MPACCSWNDVLQYETNKVTRIQSTNYGTVKWVLHMIVFSYISFALVSDKLYQRKEPVISSVHTKVKGIAEVTENVTEGGVTKLGHSIFDTADYTFPLQGNSFFVMTNYVKSEGQVQTLCPEYPRRGAQCSSDRRCKKGWMDPQSKGIQTGRCVPYDKTRKTCEVSAWCPTEEEKEAPRPALLRSAENFTVLIKNNIHFPGHNYTTRNILPTMNGSCTFHKTWDPQCSIFRLGDIFQEAGENFTEVAVQGGIMGIEIYWDCNLDSWSHHCRPRYSFRRLDDKNTDESFVPGYNFRYAKYYKENNVEKRTLIKAFGIRFDILVFGTGGKFDIIQLVVYIGSTLSYFGLATVCIDLLINTYSSAFCRSGVYPYCKCCEPCTVNEYYYRKKCESIMEPKPTLKYVSFVDEPHIRMVDQQLLGKSLQVVKGQEVPRPQMDFSDLSRLSLSLHDSPLTPGQSEEIQLLHEEVAPKSGDSPSWCQCGNCLPSRLPEQRRALEELCCRRKPGRCITTSKLFHKLVLSRDTLQLLLLYQDPLLVLGEEATNSRLRHRAYRCYATWRFGSQDMADFAILPSCCRWRIRKEFPKTEGQYSGFKYPY
modifications: palmitoylation of residues on the C-cys anchor; limited glycosylation, acylation and palmitoylation modelled where density allowed
notes: P2X7 receptor (P2X purinoceptor 7), mouse, full-length wild type, no mutations or truncations; UniProt Q9Z1M0; The construct carries a C-terminal GFP, a 3C protease site and a histidine tag; digested with HRV 3C protease before SEC; Homotrimer in the apo closed state structure; also called mP2X7R; mP2X7; source: HEK293 GNTI- cells, BacMam, purified (DDM/CHS, TALON, SEC); not shown: GFP, …
stoichiometry N: 3
